This data set in a line: yeast display, Sf9 membrane polyspecificity reagent, FACS + sequencing; frameworks hold sequencing errors. In short, it runs like this: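 Galactose induction of a Saccharomyces cerevisiae BJ5465 synthetic nanobody display library ran 36–48 hours. The cells were then stained for 1 hour at 4 °C with 10% biotinylated, detergent-solubilized Sf9 membrane reagent, pulled down on streptavidin microbeads and FACS-sorted into low and high (top ~1%) gates on expression and reagent-binding fluorescence. Labels for polyreactivity follow the gate of origin.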
Turning to “QVQLVESGGGLVQAGGSLRLSCAASGLIFRVYAMGRYRQAPGKERELVATITRGGRTYYADSVKGRFTISRDNAKNTVYLQMNSLKPEDTAVYYCAVLSVRRSYNYWGQGTQVTVSS”, the “polyreactivity (PSR sort gate)” value is “high polyreactivity”.

As to “QVQLVESGGGLVQAGGSLRLSCAASGLIFRWYAMGWYRQAPGKERELVAAISRRGGNTYYADSVKGRFTISRDNAKNTVYLQMNSLKPEDTAVYYCAASPIRSQGNDYWGQGTQVNVSS”, the “polyreactivity (PSR sort gate)” value is given as “high polyreactivity”.

“QVQLVESGGGLVQAGGSLRLSCAASGLIFRWYAMGWYRQAPGKETELVAAINYSGGRTYYADSVKGRFTISRDNAKNTVYLQMNSLKPEDTAVYYCNAVAVPSTYDYWGQGTQVTVSS”: the “polyreactivity (PSR sort gate)” value was “low polyreactivity”.

Regarding “QVQLVESGGGLVQAGGSLRLSCAASGLIFRWYAMGWYRTAPGKERELVAAISRRGGTTNYADSVKGRFTISRDNAKNTVYLQMNSLKPDDTAVYYCAADYQSVGGAEYDYWGQGTQVTVSS”, the “polyreactivity (PSR sort gate)” value was “high polyreactivity”.

As for “QVQLVESGGGLVQAGGSLRLSCAASGLIFRYYAMGWYRQAPGKERELVASISWHGGSTNYADSVKGRFTISRDNAKNTVYLQMNSLKPEDTAVYYCAADAWVATTILHDYWGQGTQVTVSS”, the “polyreactivity (PSR sort gate)” value was “high polyreactivity”.

For the sequence “QVQLVESGGGLVQAGGSLRLSCAASGLIFRYYSMGWYRQAPGKERELVAAISWTGGSTYYADSVKGRFTISRDNAKYTVYLQLNSLKPEDTAVYYCIAGQWRYPGLYYYWGQGTQVTVSS”, the “polyreactivity (PSR sort gate)” value was “high polyreactivity”.

For the sequence “QVQLVESGGGLVQAGGSLRLSCAASGLIFSEYAMGWSRQAPGKETELVADIRSDGGSTYYADSVKGRFTISRDNAKNTVYLQINSLKPEDTAVYYCNAPYRRSAKFRRYGYDYWGQGTQVTVSS”, the “polyreactivity (PSR sort gate)” value is recorded as “high polyreactivity”.

In the case of “QVQLVESGGGLVQAGGSLRLSCAASGLIFSNNAMGWYRQAPGKERELVAAISKSGGGTSYADSVKGRFTISRDNAKNTVYLQMNSLKPEDTAVYYCAARFRQFRVDYWGQGTQVTVSS”, the “polyreactivity (PSR sort gate)” value is “high polyreactivity”.

On to “QVQLVESGGGLVQAGGSLRLSCAASGLIFSRNAMGWYRQAPGKERELVAAISGGGGSTYYADSVKGRFTISRDNAKNTVYLQMNSLKPEATAVYYCAAKGYWWLTPWIATYDYWGQGTQVTVSS”, for which the “polyreactivity (PSR sort gate)” value is “high polyreactivity”.

“QVQLVESGGGLVQAGGSLRLSCAASGLIFSRYAMGWYRQAPGKERELVAAITWRGGSTYYADSVKGRFTISRDNAKNTVYLQMNSLKPEDTAVYYCNADGLWFQGYNSWGQGTQVTVSS”: the “polyreactivity (PSR sort gate)” value was “low polyreactivity”.

Consider “QVQLVESGGGLVQAGGSLRLSCAASGLIFSVYAMGWYRKAPGKERELVAAITGGGSTHYADSVKGRFTISRDNAKNTVYLQMNSLKPEDTAVYYCATRSYSWLHYWTSRGDEDYWGQGTQVTVSS”, for which the “polyreactivity (PSR sort gate)” value is “high polyreactivity”.

Turning to “QVQLVESGGGLVQAGGSLRLSCAASGLIFSVYAMGWYRQAPGKERELVAAISWSGSTYYADSVKGRFTISRDNAKNTVYLQMNSLKPEDTAVDYCAAEYDYDHFYWMDYWGQGTQVTVSS”, the “polyreactivity (PSR sort gate)” value is “high polyreactivity”.

As for “QVQLVESGGGLVQAGGSLRLSCAASGLIFSVYAMGWYRQAPGKVRELVAAITGSGGRTYYADSVKGRFTISRDNAKNYVYLQMNSLKPEDTAVYYCAATVSSYPYYRYYSWGQGTQVTVSS”, the “polyreactivity (PSR sort gate)” value was “high polyreactivity”.

Consider “QVQLVESGGGLVQAGGSLRLSCAASGLIFSWYDMGWYRQAPGKERELVAAITTDGDDTYYADSVKGRFTISRDNAKNTVYLQMNSLKPEDTAVYYCAADSELAIRYPDRDYDSWGQGTQVTVSS”, for which the “polyreactivity (PSR sort gate)” value was “low polyreactivity”.

“QVQLVESGGGLVQAGGSLRLSCAASGLIFSYNAMGWYRQAHGKETELVATIRRVGSTNYADSVKGRFTISRDNAKNTVYLQMNSLQPDDTAVYYCAAVYVRIGTRYGYWGQGTQVTVSS”: the “polyreactivity (PSR sort gate)” value was “high polyreactivity”.

On to “QVQLVESGGGLVQAGGSLRLSCAASGLIFSYYTMGWYRQAPGKERELVAAISSAGGSTYYADSVKGRFTISRDNAKNTVYLQMNSLKPEDTAVYYCAARYSGRPYGPPGYLWKDYYWGQGTQVTVSS”, for which the “polyreactivity (PSR sort gate)” value is “high polyreactivity”.

(Values after the nanobody polyreactivity screen of Harvey et al. (2022).)
